In patent US20200081011:

Legend:
[1] = target: T1, PWTW|YGVK (Table 1 substrate sequence)
T1 chain: PWTWYGVK

[2] = target: T2, NMKW|TRVL (Table 1 substrate sequence)
T2 chain: NMKWTRVL

[3] = target: T3, DEGW|ALQH (Table 1 substrate sequence)
T3 chain: DEGWALQH

[4] = target: T4, gastricsin selective internally quenched fluorescent substrate DEGW^ALQH
T4 chain: DEGWALQH

[5] = target: T5, VGKW|SYRM (Table 1 substrate sequence)
T5 chain: VGKWSYRM

[6] = target: T6, GLY|FRYE (Table 1 substrate sequence)
T6 chain: GLYFRYE

[7] = target: T7, IKIL|MFYW (Table 1 substrate sequence)
T7 chain: IKILMFYW

[8] = target: T8, HMIA|LYWG (Table 1 substrate sequence)
T8 chain: HMIALYWG

[9] = target: T9, FGIF|YLNG (Table 1 substrate sequence)
T9 chain: FGIFYLNG

[10] = target: T10, cathepsin E selective internally quenched fluorescent substrate AGFSL|PA
T10 chain: AGFSLPA

B1: recombinant gastricsin (R&D Systems, 6186-AS) (protein)
chain: SVTYEPMAYMDAAYFGEISIGTPPQNFLVLFDTGSSNLWVPSVYCQSQACTSHSRFNPSESSTYSTNGQTFSLQYGSGSLTGFFGYDTLTVQSIQVPNQEFGLSENEPGTNFVYAQFDGIMGLAYPALSVDEATTAMQGMVQEGALTSPVFSVYLSNQQGSSGGAVVFGGVDSSLYTGQIYWAPVTQELYWQIGIEEFLIGGQASGWCSEGCQAIVDTGTSLLTVPQQYMSALLQATGAQEDEYGQFLVNCNSIQNLPSLTFIINGVEFPLPPSSYILSNNGYCTVGVEPTYLSSQNGQPLWILGDVFLRSYYSVYDLGNNRVGFATAA
Relative Cleavage [1]: 1
Total Cleavage [1]: 64
Relative Cleavage [2]: 0.33
Total Cleavage [2]: 21
Relative Cleavage [3]: 0.47
Total Cleavage [3]: 30
kcat/Km (M-1/s-1) [4]: 480000 M-1/s-1
selectivity of fluorescent substrate cleavage (initial velocity) for gastricsin over cathepsin D [4]: greater than 120-fold selective for gastricsin over both cathepsins D and E
selectivity of fluorescent substrate cleavage (initial velocity) for gastricsin over cathepsin E [4]: greater than 120-fold selective for gastricsin over both cathepsins D and E
Relative Cleavage [5]: 0.34
Total Cleavage [5]: 22

B2: recombinant cathepsin E (R&D Systems, 1294-AS) (protein)
chain: IQFTESCSMDQSAKEPLINYLDMEYFGTISIGSPPQNFTVIFDTGSSNLWVPSVYCTSPACKTHSRFQPSQSSTYSQPGQSFSIQYGTGSLSGIIGADQVSVEGLTVVGQQFGESVTEPGQTFVDAEFDGILGLGYPSLAVGGVTPVFDNMMAQNLVDLPMFSVYMSSNPEGGAGSELIFGGYDHSHFSGSLNWVPVTKQAYWQIALDNIQVGGTVMFCSEGCQAIVDTGTSLITGPSDKIKQLQNAIGAAPVDGEYAVECANLNVMPDVTFTINGVPYTLSPTAYTLLDFVDGMQFCSSGFQGLDIHPPAGPLWILGDVFIRQFYSVFDRGNNRVGLAPAVP
Relative Cleavage [6]: 1
Total Cleavage [6]: 25
Relative Cleavage [7]: 0.68
Total Cleavage [7]: 17
Relative Cleavage [8]: 0.4
Total Cleavage [8]: 10
Relative Cleavage [9]: 0.88
Total Cleavage [9]: 22
selectivity of fluorescent substrate cleavage (initial velocity) for cathepsin E over cathepsin D [10]: more than 100-fold selective for cathepsin E over both cathepsin D and gastricsin
selectivity of fluorescent substrate cleavage (initial velocity) for cathepsin E over gastricsin [10]: more than 100-fold selective for cathepsin E over both cathepsin D and gastricsin
